“And” between values parts separate entries of the source, which are not always exact repeats. Equal values may be shown once.
Details: Homo sapiens, pH 8.7, Thermal, DSC, reversible: yes, whole UniProt chain shown

B1: Alpha-2-macroglobulin receptor-associated protein wild type, P30533 (protein)
chain: MAPRRVRSFLRGLPALLLLLLFLGPWPAASHGGKYSREKNQPKPSPKRESGEEFRMEKLNQLWEKAQRLHLPPVRLAELHADLKIQERDELAWKKLKLDGLDEDGEKEARLIRNLNVILAKYGLDGKKDARQVTSNSLSGTQEDGLDDPRLEKLWHKAKTSGKFSGEELDKLWREFLHHKEKVHEYNVLLETLSRTEEIHENVISPSDLSDIKGSVLHSRHTELKEKLRSINQGLDRLRRVSHQGYSTEAEFEEPRVIDLWDLAQSANLTDKELEAFREELKHFEAKIEKHNHYQKQLEIAHEKLRHAESVGDGERVSRSREKHALLEGRTKELGYTVKKHLQDLSGRISRARHNEL
- Tm (Gly 20 mM, transition: 2): 65.8 °C
- unfolding enthalpy (calorimetric) (Gly 20 mM, transition: 2): 56 kcal/mol
- unfolding enthalpy (calorimetric) (Glycine 20 mM, transition: 2): 45 kcal/mol and 41 kcal/mol and 59 kcal/mol
- unfolding enthalpy (calorimetric) (Glycine 20 mM, transition: 4): 42 kcal/mol and 41 kcal/mol

— FireProtDB (doi:10.1074/jbc.274.2.717)
